Source: US6627193

B1: TLCK-inactivated RgpB (protein)
chain: YTPVEEKENGRMIVIVAKKYEGDIKDFVDWKNQRGLRTEVKVAEDIASPVTANAIQQFVKQEYEKEGNDLTYVLLVGDHKDIPAKITPGIKSDQVYGQIVGNDHYNEVFIGRFSCESKEDLKTQIDRTIHYERNITTEDKWLGQALCIASAEGGPSADNGESDIQHENVIANLLTQYGYTKIIKCYDPGVTPKNIIDAFNGGISLVNYTGHGSETAWGTSHFGTTHVKQLTNSNQLPFIFDVACVNGDFLFSMPCFAEALMRAQKDGKPTGTVAIIASTIDQYWAPPMRGQDEMNEILCEKHPNNIKRTFGGVTMNGMFAMVEKYKKDGENMLDTWTVFGDPSLLVRTLVPTEMQVTAPANISASAQTFEVACDYNGAIATLSDDGDMVGTAIVKDGKAIIKLNESIADETNLTLTVVGYNKVTVIKDVKVEGTSIADVANDKPYTVAVSGKTITVESPAAGLTIFDMNGRRVATAKNRMVFEAQNGVYAVRIATEGKTYTEKVIVK
B2: RgpB (50 kDa gingipain R, RGP-2) from Porphyromonas gingivalis HG66 (protein)
chain: YTPVEEKENGRMIVIVAKKYEGDIKDFVDWKNQRGLRTEVKVAEDIASPVTANAIQQFVKQEYEKEGNDLTYVLLVGDHKDIPAKITPGIKSDQVYGQIVGNDHYNEVFIGRFSCESKEDLKTQIDRTIHYERNITTEDKWLGQALCIASAEGGPSADNGESDIQHENVIANLLTQYGYTKIIKCYDPGVTPKNIIDAFNGGISLVNYTGHGSETAWGTSHFGTTHVKQLTNSNQLPFIFDVACVNGDFLFSMPCFAEALMRAQKDGKPTGTVAIIASTIDQYWAPPMRGQDEMNEILCEKHPNNIKRTFGGVTMNGMFAMVEKYKKDGENMLDTWTVFGDPSLLVRTLVPTEMQVTAPANISASAQTFEVACDYNGAIATLSDDGDMVGTAIVKDGKAIIKLNESIADETNLTLTVVGYNKVTVIKDVKVEGTSIADVANDKPYTVAVSGKTITVESPAAGLTIFDMNGRRVATAKNRMVFEAQNGVYAVRIATEGKTYTEKVIVK

Biological target: purified human protein C (PC), P04070
Sequence (P04070 whole entry, looked up): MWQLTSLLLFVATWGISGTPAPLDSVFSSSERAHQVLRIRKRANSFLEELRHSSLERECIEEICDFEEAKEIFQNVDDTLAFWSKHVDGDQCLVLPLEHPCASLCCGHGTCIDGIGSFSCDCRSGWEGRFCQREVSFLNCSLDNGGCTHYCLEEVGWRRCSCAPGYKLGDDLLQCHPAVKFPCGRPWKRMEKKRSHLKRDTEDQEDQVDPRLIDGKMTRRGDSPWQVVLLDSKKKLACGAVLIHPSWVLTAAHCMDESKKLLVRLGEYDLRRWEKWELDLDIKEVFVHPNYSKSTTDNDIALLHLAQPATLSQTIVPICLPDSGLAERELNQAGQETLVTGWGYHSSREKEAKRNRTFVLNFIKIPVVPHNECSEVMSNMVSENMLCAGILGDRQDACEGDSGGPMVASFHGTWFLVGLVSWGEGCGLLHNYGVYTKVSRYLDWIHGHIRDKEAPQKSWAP

| Protein | APC activity generated from purified PC | APC activity generated from purified PC (amidolytic assay with Boc-Leu-Ser-Thr-Arg-MCA) | APC activity generated in human plasma | Km (activation of human protein C) | kcat (activation of human protein C) | kcat/Km (activation of human protein C) |
| --- | --- | --- | --- | --- | --- | --- |
| B1 | TLCK-treated enzymes did not induce PC activation |  |  |  |  |  |
| B2 |  | Both proteinases generated APC linearly in a dose- and incubation time-dependent manner | with RgpB negligible APC was detected | 3.8 µM | 0.015 s⁻¹ | 3900 M⁻¹ s⁻¹ |
